Data on one protein can be found in publication PMC7769281, “The plasticity of the pyruvate dehydrogenase complex confers a labile structure that is associated with its catalytic activity” (PLoS ONE, 2020).

The data set concerns the molecule itself. Briefly: SEC; FLAG-purified E3-5xFLAG on Superose 6 in 350 mM NaCl; peak fraction (16 ml, ~230 kDa) analysed by MudPIT. In general terms: SEC sorts molecules by how far they enter the pores of the column.

B1: yeast PDC E3, Lpd1-5xFLAG (natural protein, S. cerevisiae, UniProt P09624 22-499, looked up)
chain: TINKSHDVVIIGGGPAGYVAAIKAAQLGFNTACVEKRGKLGGTCLNVGCIPSKALLNNSHLFHQMHTEAQKRGIDVNGDIKINVANFQKAKDDAVKQLTGGIELLFKKNKVTYYKGNGSFEDETKIRVTPVDGLEGTVKEDHILDVKNIIVATGSEVTPFPGIEIDEEKIVSSTGALSLKEIPKRLTIIGGGIIGLEMGSVYSRLGSKVTVVEFQPQIGASMDGEVAKATQKFLKKQGLDFKLSTKVISAKRNDDKNVVEIVVEDTKTNKQENLEAEVLLVAVGRRPYIAGLGAEKIGLEVDKRGRLVIDDQFNSKFPHIKVVGDVTFGPMLAHKAEEEGIAAVEMLKTGHGHVNYNNIPSVMYSHPEVAWVGKTEEQLKEAGIDYKIGKFPFAANSRAKTNQDTEGFVKILIDSKTERILGAHIIGPNAGEMIAEAGLALEYGASAEDVARVCHAHPTLSEAFKEANMAAYDKAIHC
notes: Dihydrolipoamide dehydrogenase (E3, Lpd1), S. cerevisiae BY4741; also called E3-5xFLAG; yPDC-E3
For B1, the binding result was “binds”.
